The source of these data is PMC3045603.

Assay [1] concerns the target wild-type yeast ScNep1 with an N-terminal hexahistidine tag (S. cerevisiae) (UniProt Q06287). The experiment in a line: SEC. Background: SEC sorts molecules by how far they enter the pores of the column.
In assay [2] the target is yeast ScNep1^D90G (Bowen-Conradi syndrome mutation) with an N-terminal hexahistidine tag (S. cerevisiae) (UniProt Q06287). Kind of assay: SEC.

By Kd is commonly meant the concentration at which binding is half-saturated. Lower therefore signals a tighter complex. The term stoichiometry N denotes the number of molecules, sites or subunits per partner or assembly.

With “wild-type yeast ScNep1 with an N-terminal hexahistidine tag (from UniProt Q06287 1-252) (enzyme)”, the Kd in assay [1] stood at 134 µM.

On to “yeast ScNep1^D90G (Bowen-Conradi syndrome mutation) with an N-terminal hexahistidine tag (from UniProt Q06287 1-252) (enzyme)”, for which, in assay [2], the Kd was found to be 5.8 µM and the stoichiometry N was 2.
